Assay results: patent publication US7494767 (FUNCTIONAL GENETICS, dated 2009)

B1: GAL4 DNA-binding domain-p1-p6 fusion protein (other)
chain: MKLLSSIEQACDICRLKKLKCSKEKPKCAKCLKNNWECRYSPKTKRSPLTRAHLTEVESRLERLEQLFLLIFPREDLDMILKMDSLQDIKALLTGLFVQDNVNKDAVTDRLASVETDMPLTLRQHRISATSSSEESSNKGQRQLTVSGKIWPSYKGRPGNFLQSRPEPTAPPFLQSRPEPTAPPEESFRSGVETTTPPQKQEPIDKELYPLTSLRSLFGNDPSSQ
notes: also called pGBT9-p1p6; Gag^p6

Experiments:
[1] = target: T1, GAL4 activation domain-Tsg101 fragment from aa139 to the C-terminus (yeast; human, UniProt Q99816 139-390); experiment: yeast 2-hybrid
T1 construct: also called 139-C
T1 sequence: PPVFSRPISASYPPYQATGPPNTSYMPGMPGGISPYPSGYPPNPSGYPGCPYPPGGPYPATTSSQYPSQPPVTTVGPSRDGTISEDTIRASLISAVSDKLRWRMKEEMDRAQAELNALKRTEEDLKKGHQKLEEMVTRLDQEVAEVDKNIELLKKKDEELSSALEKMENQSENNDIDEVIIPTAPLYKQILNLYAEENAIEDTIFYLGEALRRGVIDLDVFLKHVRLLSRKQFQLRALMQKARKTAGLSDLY

[2] = target: T2, GAL4 activation domain-Tsg101 N-terminal 311-residue fragment (yeast; human, UniProt Q99816 1-311); experiment: yeast 2-hybrid
T2 construct: also called N-311
T2 sequence: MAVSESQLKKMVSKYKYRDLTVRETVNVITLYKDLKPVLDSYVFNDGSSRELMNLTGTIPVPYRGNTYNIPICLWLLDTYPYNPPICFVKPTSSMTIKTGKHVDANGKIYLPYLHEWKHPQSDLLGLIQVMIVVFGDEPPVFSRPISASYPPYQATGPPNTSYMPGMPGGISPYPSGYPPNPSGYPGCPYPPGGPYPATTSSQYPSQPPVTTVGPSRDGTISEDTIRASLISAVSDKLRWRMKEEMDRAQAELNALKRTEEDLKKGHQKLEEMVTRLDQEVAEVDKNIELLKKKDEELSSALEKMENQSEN

[3] = target: T3, GAL4 activation domain-Tsg101 fusion protein (wild-type human Tsg101) (yeast; human, UniProt Q99816 1-390); experiment: yeast 2-hybrid, LacZ reporter
T3 construct: also called hTsg101; product of the human tumor susceptibility gene Tsg101
T3 sequence: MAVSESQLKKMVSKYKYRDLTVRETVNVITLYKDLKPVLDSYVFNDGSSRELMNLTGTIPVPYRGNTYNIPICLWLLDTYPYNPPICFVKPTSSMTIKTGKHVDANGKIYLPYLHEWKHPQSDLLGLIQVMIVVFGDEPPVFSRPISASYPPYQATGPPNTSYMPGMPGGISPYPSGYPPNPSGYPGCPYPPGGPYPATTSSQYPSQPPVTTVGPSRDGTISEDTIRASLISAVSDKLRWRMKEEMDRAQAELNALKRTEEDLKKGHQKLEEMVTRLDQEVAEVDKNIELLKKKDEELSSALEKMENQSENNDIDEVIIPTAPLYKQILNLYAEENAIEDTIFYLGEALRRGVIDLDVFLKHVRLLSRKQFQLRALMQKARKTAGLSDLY

[4] = target: T3, GAL4 activation domain-Tsg101 fusion …; experiment: yeast 2-hybrid, β-galactosidase; p1-p6 variant with Tsg101
[5] = target: B1; experiment: yeast 2-hybrid
[6] = target: B1; experiment: yeast 2-hybrid, β-galactosidase; Tsg101 variant with p1-p6

B1
binding result [1]: no binding | binding result [2]: binds | binding result [3]: binds

B2: GAL4 DNA-binding domain-p1-p6 K493R (other)
chain: MKLLSSIEQACDICRLKKLKCSKEKPKCAKCLKNNWECRYSPKTKRSPLTRAHLTEVESRLERLEQLFLLIFPREDLDMILKMDSLQDIKALLTGLFVQDNVNKDAVTDRLASVETDMPLTLRQHRISATSSSEESSNKGQRQLTVSGKIWPSYKGRPGNFLQSRPEPTAPPFLQSRPEPTAPPEESFRSGVETTTPPQKQEPIDRELYPLTSLRSLFGNDPSSQ
binding result [4]: binds

B3: GAL4 DNA-binding domain-p1-p6 K487,493R (other)
chain: MKLLSSIEQACDICRLKKLKCSKEKPKCAKCLKNNWECRYSPKTKRSPLTRAHLTEVESRLERLEQLFLLIFPREDLDMILKMDSLQDIKALLTGLFVQDNVNKDAVTDRLASVETDMPLTLRQHRISATSSSEESSNKGQRQLTVSGKIWPSYKGRPGNFLQSRPEPTAPPFLQSRPEPTAPPEESFRSGVETTTPPQRQEPIDRELYPLTSLRSLFGNDPSSQ
binding result [4]: binds

B4: GAL4 activation domain-Tsg101 N-terminal 155-residue fragment (other)
chain: MAVSESQLKKMVSKYKYRDLTVRETVNVITLYKDLKPVLDSYVFNDGSSRELMNLTGTIPVPYRGNTYNIPICLWLLDTYPYNPPICFVKPTSSMTIKTGKHVDANGKIYLPYLHEWKHPQSDLLGLIQVMIVVFGDEPPVFSRPISASYPPYQA
notes: also called N-155
binding result [5]: binds

B5: GAL4 activation domain-Tsg101 fragment 241-C (other)
chain: RMKEEMDRAQAELNALKRTEEDLKKGHQKLEEMVTRLDQEVAEVDKNIELLKKKDEELSSALEKMENQSENNDIDEVIIPTAPLYKQILNLYAEENAIEDTIFYLGEALRRGVIDLDVFLKHVRLLSRKQFQLRALMQKARKTAGLSDLY
binding result [5]: no binding

B6: GAL4 activation domain-Tsg101 N-terminal 215-residue fragment (other)
chain: MAVSESQLKKMVSKYKYRDLTVRETVNVITLYKDLKPVLDSYVFNDGSSRELMNLTGTIPVPYRGNTYNIPICLWLLDTYPYNPPICFVKPTSSMTIKTGKHVDANGKIYLPYLHEWKHPQSDLLGLIQVMIVVFGDEPPVFSRPISASYPPYQATGPPNTSYMPGMPGGISPYPSGYPPNPSGYPGCPYPPGGPYPATTSSQYPSQPPVTTVGP
notes: also called N-215
binding result [5]: binds

B7: GAL4 activation domain-Tsg101 with Ala for 149Ser-Tyr150 (other)
chain: MAVSESQLKKMVSKYKYRDLTVRETVNVITLYKDLKPVLDSYVFNDGSSRELMNLTGTIPVPYRGNTYNIPICLWLLDTYPYNPPICFVKPTSSMTIKTGKHVDANGKIYLPYLHEWKHPQSDLLGLIQVMIVVFGDEPPVFSRPISAAAPPYQATGPPNTSYMPGMPGGISPYPSGYPPNPSGYPGCPYPPGGPYPATTSSQYPSQPPVTTVGPSRDGTISEDTIRASLISAVSDKLRWRMKEEMDRAQAELNALKRTEEDLKKGHQKLEEMVTRLDQEVAEVDKNIELLKKKDEELSSALEKMENQSENNDIDEVIIPTAPLYKQILNLYAEENAIEDTIFYLGEALRRGVIDLDVFLKHVRLLSRKQFQLRALMQKARKTAGLSDLY
notes: also called mutation of 149Ser-Tyr150
binding result [6]: binds

B8: GAL4 activation domain-Tsg101 fragment 311-C (other)
chain: NNDIDEVIIPTAPLYKQILNLYAEENAIEDTIFYLGEALRRGVIDLDVFLKHVRLLSRKQFQLRALMQKARKTAGLSDLY
binding result [5]: no binding
